Test [1] concerns the target GST-Tat 1-101 (HIV-1 Tat protein) (HIV-1). Briefly: ELISA; competition: GST-Tat 1-101 or GST-Tat 1-45 (0.1 μM) pre-incubated 1 h at 37°C with increasing amounts of soluble rhMD2, rhTLR4-MD2, rhTLR4 or rhCD14, then 2 h on coated rhMD2 (or TLR4-MD2); OD 450 nm; K0.5 taken as an apparent dissociation constant. A general note: An ELISA detects its analyte on a solid surface through an enzyme-linked reagent.

Test [2] has as its target T1, recombinant human TLR4 (human, UniProt O00206 24-631).
T1 construct: human Toll-like receptor 4 (TLR4), recombinant, used coated or soluble without MD2; also called rhTLR4; rh TLR4
Briefly: ELISA; rh TLR4 coated at 1 μg/ml; MD2 at 1-10 μg/ml in solution; detected with anti-MD2 monoclonal antibodies. The following applies: both partners purified.

Data on two molecules can be found in PMC4231456, “HIV-1 Tat protein binds to TLR4-MD2 and signals to induce TNF-α and IL-10” (Retrovirology, 2013).

Chain of GST-Tat 1-101 (HIV-1 Tat protein) (HIV-1) (P04614 whole entry): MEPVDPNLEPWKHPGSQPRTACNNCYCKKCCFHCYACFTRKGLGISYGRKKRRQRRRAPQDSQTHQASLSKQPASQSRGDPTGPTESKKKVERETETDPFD
T1 sequence (O00206 24-631): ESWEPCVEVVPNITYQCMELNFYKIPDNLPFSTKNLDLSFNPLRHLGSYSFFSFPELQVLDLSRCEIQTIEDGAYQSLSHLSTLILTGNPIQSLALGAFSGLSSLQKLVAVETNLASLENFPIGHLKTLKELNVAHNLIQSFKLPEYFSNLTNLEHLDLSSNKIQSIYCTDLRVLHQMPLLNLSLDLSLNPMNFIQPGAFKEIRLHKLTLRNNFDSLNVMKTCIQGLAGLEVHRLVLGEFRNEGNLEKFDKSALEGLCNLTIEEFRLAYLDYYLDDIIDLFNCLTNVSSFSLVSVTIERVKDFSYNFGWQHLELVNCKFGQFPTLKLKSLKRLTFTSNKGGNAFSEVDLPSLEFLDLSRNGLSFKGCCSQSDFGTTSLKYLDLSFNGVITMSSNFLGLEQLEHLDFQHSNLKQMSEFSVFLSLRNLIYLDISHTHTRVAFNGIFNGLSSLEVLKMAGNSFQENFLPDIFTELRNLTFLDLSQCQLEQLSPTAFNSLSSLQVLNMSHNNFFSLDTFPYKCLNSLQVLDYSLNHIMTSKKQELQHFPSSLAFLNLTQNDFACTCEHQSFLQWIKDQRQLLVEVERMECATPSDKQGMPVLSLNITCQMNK

The term IC50 denotes the concentration that inhibits the measured activity by half. As to “recombinant human TLR4-MD2 complex (from UniProt O00206 24-631; Q9Y6Y9 19-160)”, the half-maximal inhibitory concentration (IC50) in test [1] came out at 1 nM.

B1: recombinant human MD2 (natural protein, UniProt Q9Y6Y9 19-160, looked up)
chain: QKQYWVCNSSDASISYTYCDKMQYPISINVNPCIELKRSKGLLHIFYIPRRDLKQLYFNLYITVNTMNLPKRKEVICRGSDDDYSFCRALKGETVNTTISFSFKGIKFSKGKYKCVVEAISGSPEEMLFCLEFVILHQPNSN
notes: human MD2 (lymphocyte antigen 96), soluble recombinant; No catalogue number printed; also called rhMD2; hMD2; source: bought: R&D Systems
In the case of B1, in test [1], the IC50 is 4 nM and the percent inhibition of Tat binding to coated MD2 with soluble MD2 at 1 μg/ml is greater than 95%. For the same molecule, the binding result in test [2] was “binds”.
